This data set can be described thus: soluble on expression in E. coli; label from the status in PepcDB or PDB records.
Consider “MSLIRAMQKSDYEAVYKLWCEIKGFGIRSIDDSKENIENFLDRNPNLSVVAVIDEEIVGSILCGHDGRTGGFYHVCVHKDHRKKGIAHEMAKFCLEALKAQKINKIALIAFKNNDLGNEFWKHYGFTLREDANYYDLSLNEYNQTSFNAEGHHHHHH”, for which the “soluble on expression in E. coli” value is recorded as “soluble”.
As for “MLKHIPKNISPDLLKTLMEMGHGDEIVLADANYPSASCANKLIRCDGVNIPELLDSILYLMPLDSYVDSSIQFMNVVSGDDIPKIWGTYRQMIEGHGTDLKTITYLRREDFYERSKKAYAIVATGETSLYANIILKKGVVVERENVQ”, the “soluble on expression in E. coli” value was “soluble”.
In the case of “MKKFCLSYSSGKDCLLAMDRLVQAGNQPVALVTTLSDEINRSWFHGIPISVLEAAAEALDLPLVISHNNETNYTEKVVEALQETKKLGAETVCFGDIDIEQNGAWDRQVALSAGLEPQLPLWQENREALVKEFLAKGYTAIIKTVSKEAGIPIKFLGEPLNETFITYLKEHQLDICGENGEYHTLVIDGPLFKKRLNYYTSGIYESPYAYSLIIDALEHHHHHH”, the “soluble on expression in E. coli” value was “soluble”.
As to “MGSDKIHHHHHHMRKLLVIGLDSVPPLLIEKFRDLIPNLQSLLNVKGKLLSGHPPITVPMWGVMLAGRSAGELGVYGFRHRRPGDVGTSYVVTSRSIAEGWVWDDLGLRLGLRSLVIGVPPGYPARRVRGWFVSCFLTPGVDGAFAWPPGLKREILKASGGDYVFDVKYRVEDKESVRKSLWRLAKTQFKVVKYLLSSKPWDFAMYMHIGTDRVHHAFWKYWDPEHPRYPGEGNPYENVLPEYYSLVDKHIGQLLESLPGDTDVIVVSDHGAKAMKGAFAINQWLEEEGYLSLKEEPKRPGADLEASMIDWDRTMAWAWGGYYSRVYINLKGREPRGIVGREEYWSVVEQLKRDIEKIRGPNGERWENKAYHPSELYPEVRGDAPDLMVYLDNLSWRPAGTIGWPSTYLEENDRGPDDAVHDWHGIIGGNADVLKEAVKDSTVPIQRVKEIILAHYGLESHMKDRGRGAV”, the “soluble on expression in E. coli” value was “not soluble”.
To “MFSIQIPALHGKYLREVLESIREQTFQDYEVVVVNSGGGVISDIVHEYGFKEVRKDVKLLEARYLANKESRGDYAFLLDETRPLRKDALEILSKNLHDMVIIGERELGDSFWSRAAQLDKENIMECNSPEAVRGFALPRLFKRELLTASLEKLRENLREKFSQVVFPDHELIYYEASGFSNDIFVIKDELVYHYGDFTLKEIVRKYYRYGKSLKVLKDTPYSFMTSVSRKRREICVGGIKGRLTLYILYLARGIPFLFGKFSLLEHHHHHH” belongs “soluble”; to “MAPLLSLCMIVKNEAHQLRRCLQSVQPWVDEIIIVDTGSTDGTIAIACEFTPHVHAVAWQGDFAAARNAALAQATGEWVFYIDADEELVVTDAHWQDQLTAPGAHAINQWSLLRREQSSDRNWSEFWNVRFGRRFPDLHFAGALHEQLCYREREAVVGELQGVYLIHHNQQSQEQFLAKIRDRNIPILETMVQQGDRRLQNLVCLGDHYAACGDSDRSQAWYEQALEEIASAVEQGILPRETTWLRHLLFWVSYRAFEAKDYETAQYYLSYGLRFFDRYPPLLYVAGLFVFELGLPRGALPYFHRCLDLFEAGSYDRTEPFDRQWMTTQPAYSLGYTYMTLQERDRAIAYFQKTLKFNPDYPPAQMYLEQLLRASANQGLEHHHHHH”, “not soluble”; to “MGSDKIHHHHHHMRGMMLGMLAETHIHSGAGRSEGFVDLPVAREAVTSYPVIAGSSLKGALRDAARERGMDESIFGDQDRAGDVLVSDARLLLLPVRSLTGSYRWVTCPHILERLSRDMRLCGISDGFEGASVERGKACCTDDLNQIFLEEREFQRSNGIDGALIDALKKMVPHKQTASRLERQLVIISDDDFGWFASYGLPVIARNKLDDNKKSKNLWYEEALAPDTLMYAMVFERKDGALGKVQSMFETKPYLQLGGNETVGMGWFAVKILEQGEGR”, “not soluble”.
As for “MGGMDTGVTSPRVLVVDDDSDVLASLERGLRLSGFEVATAVDGAEALRSATENRPDAIVLDINMPVLDGVSVVTALRAMDNDVPVCVLSARSSVDDRVAGLEAGADDYLVKPFVLAELVARVKALLRRRGSTATSSSETITVGPLEVDIPGRRARVNGVDVDLTKREFDLLAVLAEHKTAVLSRAQLLELVWGYDFAADTNVVDVFIGYLRRKLEAGGGPRLLHTVRGVGFVLRMQ”, the “soluble on expression in E. coli” value is given as “soluble”.
Regarding “MGSDKIHHHHHHMRSHGGDVYKVSPNYDRITDMSSNVNPFLDLGKYSLYPEISYTDIEEKLRVYTKSTNMGIVIGPGLTHLIYKYFEFYQVKKPIIAMPNFSEYKGIAEDRHLRFSAIPSYIIEKDPLILKNFDHDALFITSPSNPFGELFPESTLETVFEIEEKRGRRVFLDGAFMDFVPNYAESIVQSSRSYFNVTIGRSLTKILAIPSLRAGYLIMERHEADLFRKAMEPWSICQPAIDFIRSIDINEVAKNSVALVNGEREYLISELKARGIKVIGNPSANYIVISMPRTDEFYNFMLSKGILVRLLDDYDYVGRCLVRLAIKTRSQNNAFLNALDNFMSSSE”, the “soluble on expression in E. coli” value is “not soluble”.
Consider “MPTDEPSKRKSILPTIPTSLMLKKSNEALSDFERTFNDRVMDIFAENRRIDVEEFKKNAECFLNIIRSNKIDLNWGEGGESRYVTITRLMKILKTSPQSIKDLLPHNTVSNFVKITNYNLTIDITLLEELVRTVIHAEESYIKLLPFSENSTEISSYSLQDFVATHFIPIMIEEPENPVYYTAYAVGTIFFLLGARRRDCVYLKDLLASTLLLQLEECIHAENHCLSPPKIDVFTVAQFRTTLSEFRFLDSQRKGLLAPADLKFFRDGIFNEVFTKRIFEISITYEDGRIDFKAFVDFVTALKFRHTTASAKYHFEILDLKDDGLLDEEEIRSISSFQLQNLPDYVPEDNSVNPEVATAELRDMMRLNQNGITLEEFLANRMNSTFAGFLSNSDDYMKYERREQ”, for which the “soluble on expression in E. coli” value is “not soluble”.
Regarding “MTGEGYKQAIVVRRDLGMGRGKAAAQAAHASCEAVFLILESGRPEWRRWLEMWRLQGQAKVVLRVESLAELQEVYSKAVEEGLPASFVRDAGKTQLEPGTPTAAAVGPAPSRLVDRITGGLKLF”, the “soluble on expression in E. coli” value was “not soluble”.
With “DPVFLDIFKSDKEDYEQRLRGAIREELNAFWQAKQPMIGLYLGEAMVGVACINSPDETLASDRFWHWRLKMLLNAGYFSTKQMMQKEHTVLAAVPLKIFHFLSFIAVHPLHQQHGFGHYLMAAVNTVLDEHPDSEGVAVYATSGKFKEFFKQVDYHTVKEVTVGNV”, the “soluble on expression in E. coli” value is “not soluble”.
“SEQIMSSQQVARRMMLDIGDKPQEHLVAIYLDTQNRIIQQKTVFIGGVRRSIAEPREILYYACHLMATSLIVVHNHPSGEAYPSRNDIDFTQKIKRSCDDLGICLLDHLIVGKSTYYSFREEREDFEL”: the “soluble on expression in E. coli” value is “not soluble”.
In the case of “MSLSASTHDLVIIGAGPAGMSAALTAASLGMKTLLLDEQLRPGGQIYRNITAVPPSVAALLGPDYRHGEGLAARLGRSGVELRFGAMVWDVARDLTVTAQQDGQSFQVRAPQLIAATGAMERASPIPGWTLPGVLNAGAAQIALKSASAVPSGRVVLAGSGPLLLLVACQLLDAGVSLAGIVETSPSTNRWRALRHLPAALGAHAYLAKGLRMLWRLRRAGVPMFAAATSLRVEGGERVQALAFKADRIDHLLHADVVLLHHGVVPNTQLSRLLRVDHDWDLVQLAWRPQVNAWGETSLAGFRVAGDGAAIAGAQAAEPNGTLAALGAAQALGRLDVTECEQRAASARGTLKRQLRIRPFLDALYRPPEWLSDPTDETVVCRCEEVTAGRVREMARLGCQGPNQTKFFSRCGMGPCQGRVCGLTVTQILSTELGRPPSEVGAYHIRSPLKPVPLASIAALADTATIENSEPMETTEGHHHHHH”, the “soluble on expression in E. coli” value is on record as “not soluble”.
With “SNAMKKGTVLNSEISSVISRLGHTDTLVVCDAGLPIPNSTARIDMALTQGVPSFMQVVDVVTREMQVEAAILATEIKQQNPQLHETLLTHLEQLQQHQGNTIKISYTTHEQFKKLTADSQAVIRSGECSPYANVILCAGVTF”, the “soluble on expression in E. coli” value is “soluble”.
Turning to “MAKRIVAMSSTHIAMLDAIGEVRCITGVSGIDYISNPDIQARRDSIGDVGYEGNINYELLLSLDPDLVLLYGVNGASAMESKLEELDIPFMYVGDYLEESPLGKAEWMVVLSEVTGKREKGEKAFAAIPVRYNALKKKVADSTLEHHHHHH”, the “soluble on expression in E. coli” value is recorded as “soluble”.
Turning to “MGSDKIHHHHHHMKLYKLLILDIDGTLRDEVYGIPESAKHAIRLCQKNHCSVVICTGRSMGTIQDDVLSLGVDGYIAGGGNYIQYHGELLYNQSFNQRLIKEVVCLLKKREVAFSIESQEKVFMNQKAKEIFETMNQLKGTNSCINKQHIQEKITYENNIEEYKSQDIHKICLWSNEKVFDEVKDILQDKMELAQRDISSQYYEIIQKDFHKGKAIKRLQERLGVTQKETICFGDGQNDIVMFQASDVTIAMKNSHQQLKDIATSICEDIFDNGIYKELKRRNII”, the “soluble on expression in E. coli” value is reported as “not soluble”.
Take “MGSDKIHHHHHHMSDQANQGDLEIRPSPLLKVINDLHSKYKSLKEGIVANYIPELAKVNPDLFSISIVTVDGQVYQVGDYQQLFTIQSISKVFAYGLALEDHGRDYVLTRVGVEPTGEAFNAIILDEQSKRPYNPMVNAGAIATTSLIKGAGATERLNRVLEMFRRYIGHDVFVDISVFTSERSTGHRNRAMAHLMLNFGMIDRNIEEALDLYFQQCAVMVNCHDLAVMAATLANRGVNPITGEQAVNSRYIKDILSVMYTCGMYNFAGEWAYKVGIPAKSGVCGGIMAVVPNLMGIAVFSPPLDIRGNSVRGVKVCEELSQQLGLHLFECMKVGNGEWGVGNCEC”: the “soluble on expression in E. coli” value is given as “not soluble”.
As to “MNLFYNKEAVGDVAFLQINPTEGEYNYVTQGDVVEIQNDGEVVGYNIFNASNKATLTGNGHIKLTETLVQAFQKAIEAAGFTYKLDADFTPKFVVGYVETKDKHPDADKLSVLSVDVATEKLQIVCGAPNVEAGQKVVVAKVGAVMPSGMVIKDAELRGVASSGMICSMKELGLPNAPQEKGIMVLSDDYTVGQSFFEVLEHHHHHH”, the “soluble on expression in E. coli” value is listed as “soluble”.
For “MSQFKNIIVTGGAGFIGSNFVHYVYNNHPDVHVTVLDKLTYAGNKANLEAILGDRVELVVGDIADAELVDKLAAKADAIVHYAAESHNDNSLNDPSPFIHTNFIGTYTLLEAARKYDIRFHHVSTDEVYGDLPLREDLPGHGEGPGEKFTAETNYNPSSPYSSTKAASDLIVKAWVRSFGVKATISNCSNNYGPYQHIEKFIPRQITNILAGIKPKLYGEGKNVRDWIHTNDHSTGVWAILTKGRMGETYLIGADGEKNNKEVLELILEKMGQPKDAYDHVTDRAGHDLRYAIDASKLRDELGWTPQFTDFSEGLEETIQWYTDNQDWWKAEKEAVEANYAKTQEVIK”, the “soluble on expression in E. coli” value is reported as “soluble”.
On to “VDQVFVVGHKNLDMDALGSAVGMQLFASNVIENSYALYDEEQMSPDIERAVSFIEKEGVTKLLSVKDAMGMVTNRSLLILVDHSKTALTLSKEFYDLFTQTIVIDHHRRDQDFPDNAVITYIESGASSASELVTELIQFQNSKKNRLSRMQASVLMAGMMLDTKNFTSRVTSRTFDVASYLRTRGSDSIAIQEIAATDF”, for which the “soluble on expression in E. coli” value is “not soluble”.
Consider “SVYINRMTGLSTFVAPTDDLHTACTKDLTTVAVDVLLGNDAVDAAAAAVSEPLQSLFSEWSNPVFARYPEVAVDVSSGQAESLAVKIHNVLYPYRFTKEMIHSVKVLQQVDNKFIACLMSTRMDEDGRTGGNLLVLVDQHAAHERIRLEQLITDSYEKQDPQSAGRKKLLSSTIIPPLAITVSEEQRRLLRN”, for which the “soluble on expression in E. coli” value is given as “soluble”.
“MNLKEFIIPAIDLMEGKAVRLYKGDFNKVKVYSERPWELAKNFSDLGFKRLHVVDLEGAEGGKPKNLEVIRKIRENFEGEVEVGGGIRSYEVAKALFDEGIDFVVIGTLAYKNKEEFLKILENFPNRVILAIDSKQGKVAIGGWKEETAVSPEEFAKEYENYPIWGYLYTVIERDGSLEGVDVEPYKEIKKHVKKPVIASGGVSSLEDIKKLYGIVEGVVVGKAIYEGRITLEDLQNF”: the “soluble on expression in E. coli” value was “soluble”.

The values are drawn from the DeepSol protein solubility set.
